Measured values reported in paper PMC9482650, “Quantitative fragmentomics allow affinity mapping of interactomes” (Nature Communications, 2022).

Key:
Test in all cases: holdup assay
Parameters in all cases: key: below the threshold = too weak to quantify, mostly under pKd 3.1 to 4
LNX2_1, Q8N448 = biological target: T1, LNX2_1, Q8N448
T1 sequence (Q8N448 228-328, limits assumed, looked up): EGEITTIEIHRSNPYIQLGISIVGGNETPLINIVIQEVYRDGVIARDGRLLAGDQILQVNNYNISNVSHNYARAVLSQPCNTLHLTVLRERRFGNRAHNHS

INTU, Q9ULD6 = biological target: T2, INTU, Q9ULD6
T2 sequence (Q9ULD6 180-273, limits assumed, looked up): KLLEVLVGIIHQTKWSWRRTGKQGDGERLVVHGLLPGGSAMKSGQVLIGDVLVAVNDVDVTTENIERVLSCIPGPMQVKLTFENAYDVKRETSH

LNX1_4, Q8TBB1 = biological target: LNX1_4, Q8TBB1
LIMK1, P53667 = biological target: LIMK1, P53667
RGS12, O14924 = biological target: T3, RGS12, O14924
T3 sequence (O14924 17-108, limits assumed, looked up): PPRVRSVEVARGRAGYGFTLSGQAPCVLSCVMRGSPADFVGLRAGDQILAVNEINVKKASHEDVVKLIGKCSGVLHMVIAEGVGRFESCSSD

GIPC3, Q8TF64 = biological target: GIPC3, Q8TF64
Q9ULJ8 = settings: plain residues with an end cap or a label only (N-terminal biotin on a linker: ttds)
Q8IUC4 = settings: plain residues with an end cap or a label only (N-terminal biotin on a linker: ttds)
Q9UMS6 = settings: plain residues with an end cap or a label only (N-terminal biotin on a linker: ttds)
Q9H190 = settings: plain residues with an end cap or a label only (N-terminal biotin on a linker: ttds)
Q9NPB6 = settings: plain residues with an end cap or a label only (N-terminal biotin on a linker: ttds)
O00233 = settings: plain residues with an end cap or a label only (N-terminal biotin on a linker: ttds)
Q12923 = settings: plain residues with an end cap or a label only (N-terminal biotin on a linker: ttds)
Q9Y3R0 = settings: plain residues with an end cap or a label only (N-terminal biotin on a linker: ttds)
O43166 = settings: plain residues with an end cap or a label only (N-terminal biotin on a linker: ttds)
Q13368 = settings: plain residues with an end cap or a label only (N-terminal biotin on a linker: ttds)
O75970 = settings: plain residues with an end cap or a label only (N-terminal biotin on a linker: ttds)
Q9P227 = settings: plain residues with an end cap or a label only (N-terminal biotin on a linker: ttds)
O60759 = settings: plain residues with an end cap or a label only (N-terminal biotin on a linker: ttds)
Q70Z35 = settings: plain residues with an end cap or a label only (N-terminal biotin on a linker: ttds)
Q8TEW0 = settings: plain residues with an end cap or a label only (N-terminal biotin on a linker: ttds)
Q96SB3 = settings: plain residues with an end cap or a label only (N-terminal biotin on a linker: ttds)
Q13009 = settings: plain residues with an end cap or a label only (N-terminal biotin on a linker: ttds)
Q9C0E4 = settings: plain residues with an end cap or a label only (N-terminal biotin on a linker: ttds)
Q9NR12 = settings: plain residues with an end cap or a label only (N-terminal biotin on a linker: ttds)
Q9UDY2 = settings: plain residues with an end cap or a label only (N-terminal biotin on a linker: ttds)
[1] = plain residues with an end cap or a label only (N-terminal biotin on a linker: ttds)
[2] = plain residues with an end cap or a label only (N-terminal biotin on a linker: none)

Measured: pKd

Sequence of GIPC3, Q8TF64 (Q8TF64 107-202): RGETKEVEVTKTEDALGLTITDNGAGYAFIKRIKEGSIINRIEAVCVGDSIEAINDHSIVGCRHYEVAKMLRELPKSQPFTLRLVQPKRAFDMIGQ
Sequence of LNX1_4, Q8TBB1 (Q8TBB1 631-726): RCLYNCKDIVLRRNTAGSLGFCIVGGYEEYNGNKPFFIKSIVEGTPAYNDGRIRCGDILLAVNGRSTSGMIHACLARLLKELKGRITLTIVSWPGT
Sequence of LIMK1, P53667 (P53667 155-268): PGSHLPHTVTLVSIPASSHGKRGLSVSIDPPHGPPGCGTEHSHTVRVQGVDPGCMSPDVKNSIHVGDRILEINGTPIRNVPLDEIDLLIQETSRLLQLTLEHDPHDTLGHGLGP

B1: CBP, Q92793 (peptide)
chain: TGDTLEKFVEGL
below the threshold: LNX2_1, Q8N448; [1] | INTU, Q9ULD6; [1] | LIMK1, P53667; [1]
4.65: LNX1_4, Q8TBB1; [1]

B2: MERS-E, K9N5R3 (peptide)
chain: DSKPPLPPDEWV
4.21: LNX2_1, Q8N448; [2]
below the threshold: INTU, Q9ULD6; [2] | LNX1_4, Q8TBB1; [2] | RGS12, O14924; [2] | LIMK1, P53667; [2] | GIPC3, Q8TF64; [2]

B3: RPS6KA1, Q15418 (peptide)
chain: RRVRKLPSTTL
below the threshold: LNX2_1, Q8N448; [1] | INTU, Q9ULD6; [1] | LNX1_4, Q8TBB1; [1] | LIMK1, P53667; [1] | GIPC3, Q8TF64; [1]
3.56: RGS12, O14924; [1]

B4: ASIC3, Q9UHC3 (peptide)
chain: HRTCYLVTQL
4.28: RGS12, O14924; [1]
below the threshold: Q9ULJ8 | Q8IUC4 | Q9UMS6 | Q9H190 | Q9NPB6 | O00233 | Q12923 | Q9Y3R0 | O43166 | Q13368 | O75970 | Q9P227 | O60759 | Q70Z35 | Q8TEW0 | Q96SB3 | Q13009 | Q9C0E4 | Q9NR12 | Q9UDY2 | GIPC3, Q8TF64; [1]

B5: MAP2K2, P36507 (peptide)
chain: QPGTPTRTAV
below the threshold: Q9ULJ8 | Q8IUC4 | Q9UMS6 | Q9H190 | Q9NPB6 | INTU, Q9ULD6; [1] | O00233 | Q12923 | Q9Y3R0 | O43166 | Q13368 | O75970 | Q9P227 | O60759 | Q70Z35 | Q8TEW0 | RGS12, O14924; [1] | Q96SB3 | Q13009 | Q9C0E4 | Q9NR12 | Q9UDY2 | GIPC3, Q8TF64; [1]
4.2: LIMK1, P53667; [1]

B6: KCNA5, P22460 (peptide)
chain: CLDTSRETDL
below the threshold: Q9ULJ8 | Q8IUC4 | Q9UMS6 | Q9H190 | Q9NPB6 | O00233 | Q12923 | Q9Y3R0 | O43166 | Q13368 | O75970 | Q9P227 | O60759 | Q70Z35 | Q8TEW0 | RGS12, O14924; [1] | Q96SB3 | Q13009 | Q9C0E4 | Q9NR12 | Q9UDY2 | GIPC3, Q8TF64; [1]
4.3: LIMK1, P53667; [1]

B7: ARHGEF16, Q5VV41 (peptide)
chain: MERLRVETDV
4.32: INTU, Q9ULD6; [1]
below the threshold: Q9ULJ8 | Q8IUC4 | Q9UMS6 | Q9H190 | Q9NPB6 | O00233 | Q12923 | Q9Y3R0 | O43166 | Q13368 | O75970 | Q9P227 | O60759 | Q70Z35 | Q8TEW0 | RGS12, O14924; [1] | LIMK1, P53667; [1] | Q96SB3 | Q13009 | Q9C0E4 | Q9NR12 | Q9UDY2 | GIPC3, Q8TF64; [1]

B8: PTEN, P60484 (peptide)
chain: DEDQHTQITKV
below the threshold: LNX2_1, Q8N448; [1] | INTU, Q9ULD6; [1] | LIMK1, P53667; [1]

B9: PBK, Q96KB5 (peptide)
chain: HIVEALETDV
4.63: LIMK1, P53667; [1]
4.9: INTU, Q9ULD6; [1]
below the threshold: Q9ULJ8 | Q8IUC4 | Q9UMS6 | Q9H190 | Q9NPB6 | O00233 | Q12923 | Q9Y3R0 | O43166 | Q13368 | O75970 | Q9P227 | O60759 | Q70Z35 | Q8TEW0 | RGS12, O14924; [1] | Q96SB3 | Q13009 | Q9C0E4 | Q9NR12 | Q9UDY2 | GIPC3, Q8TF64; [1]

B10: HTLV1-TAX1, P03409 (peptide)
chain: SEKHFRETEV
below the threshold: LNX2_1, Q8N448; [1] | LNX1_4, Q8TBB1; [1]
3.8: INTU, Q9ULD6; [1]
